Data reported in the Human Domainome abundance scans (Beltran et al. 2025).
± gives the uncertainty stated by the source.

B1: Ras GTPase-activating protein 1, residues 281 to 341; numbered along this chain, P20936 (parent)
chain: RRRVRAILPYTKVPDTDEISFLKGDMFIVHNELEDGWMWVTNLRTDEQGLIVEDLVEEVGR

Variants of: B1
Experiment: abundance fitness (aPCA) (normalised: wild type 0, dead -1); higher = more abundant; growth selection in yeast, the domain comes from the species named
Settings: Homo sapiens

| Variant | abundance fitness |
| --- | --- |
| RRRVMAILPYTKVPDTDEISFLKGDMFIVHNELEDGWMWVTNLRTDEQGLIVEDLVEEVGR [R5M] | -0.025 ± 0.055 |
| RRRVRAILPYTKVPDTDEISFLKGDMFIVHNGLEDGWMWVTNLRTDEQGLIVEDLVEEVGR [E32G] | -0.299 ± 0.029 |
| RRRVRAILPYHKVPDTDEISFLKGDMFIVHNELEDGWMWVTNLRTDEQGLIVEDLVEEVGR [T11H] | -0.129 ± 0.031 |
| RLRVRAILPYTKVPDTDEISFLKGDMFIVHNELEDGWMWVTNLRTDEQGLIVEDLVEEVGR [R2L] | -0.187 ± 0.031 |
| RRRVRAILPYTKVPDTDEISFLKGDMFIVHNELADGWMWVTNLRTDEQGLIVEDLVEEVGR [E34A] | 0.023 ± 0.04 |
| RRRVRAILPYTKVPDTDEISFLKGDMFIVHNELEDWWMWVTNLRTDEQGLIVEDLVEEVGR [G36W] | -0.867 ± 0.095 |
| RRRVRAILPYTKVPDTDEISFLKGDMFIVHNEGEDGWMWVTNLRTDEQGLIVEDLVEEVGR [L33G] | -0.082 ± 0.027 |
| RRRVRARLPYTKVPDTDEISFLKGDMFIVHNELEDGWMWVTNLRTDEQGLIVEDLVEEVGR [I7R] | -0.055 ± 0.034 |
| RRRVRAILPYTKVPDTDEISFLKGDMFIVHNELEDGWMWVTNLRTIEQGLIVEDLVEEVGR [D46I] | -0.085 ± 0.026 |
| RRRVRAILPYTKVPDTDEISFLKGDMFIVHNELEEGWMWVTNLRTDEQGLIVEDLVEEVGR [D35E] | -0.047 ± 0.062 |
| RRRVRAILPYTKVPDTDEISFLKGDMFIVHNELEDGQMWVTNLRTDEQGLIVEDLVEEVGR [W37Q] | 0.073 ± 0.042 |
| RRRVRAILPYKKVPDTDEISFLKGDMFIVHNELEDGWMWVTNLRTDEQGLIVEDLVEEVGR [T11K] | -0.13 ± 0.067 |
| RRRVRAILPYTKVPDTDEISFLKGDMFILHNELEDGWMWVTNLRTDEQGLIVEDLVEEVGR [V29L] | -0.473 ± 0.034 |
| RRRVRAILPYTKVPDTDEISFLKGDMFIVHNELEDGWMWVTNLRTDEQGLIVEDLVEQVGR [E58Q] | -0.113 ± 0.069 |
| RRRVRAILPYTKVPDTDEISFLKGDMFIVHNELEIGWMWVTNLRTDEQGLIVEDLVEEVGR [D35I] | -0.487 ± 0.037 |
| RRRVRAILPYTKVPDTDEISFLKGDMFIVHNELEDGRMWVTNLRTDEQGLIVEDLVEEVGR [W37R] | 0.088 ± 0.021 |
| RRRVRAILPYTKVPDTDEISFLKTDMFIVHNELEDGWMWVTNLRTDEQGLIVEDLVEEVGR [G24T] | -0.881 ± 0.066 |
| RRRVRAILPYTKVPDTDLISFLKGDMFIVHNELEDGWMWVTNLRTDEQGLIVEDLVEEVGR [E18L] | -0.35 ± 0.039 |
| RRRVRAILPYTKYPDTDEISFLKGDMFIVHNELEDGWMWVTNLRTDEQGLIVEDLVEEVGR [V13Y] | -0.137 ± 0.028 |
| RRRVRAILPYTKVPDTDEISFLKGDMFIVHNELEDGWMWVTNLRTDEQGLIVENLVEEVGR [D54N] | 0.013 ± 0.036 |
| RRRVRAILPYTKVPDTDEISFLKGDMFIVHNELEDGWMWVTNLRTDEQGHIVEDLVEEVGR [L50H] | -0.426 ± 0.036 |
| RRRVRAILPYTKVPDTDEILFLKGDMFIVHNELEDGWMWVTNLRTDEQGLIVEDLVEEVGR [S20L] | -1.07 ± 0.095 |

| Variant | abundance fitness |
| --- | --- |
| RRRVRAIFPYTKVPDTDEISFLKGDMFIVHNELEDGWMWVTNLRTDEQGLIVEDLVEEVGR [L8F] | -0.075 ± 0.027 |
| RRRVRAILPYTKVPDTDEISFLKGDMFIVHNELEDGWMWVTNLRTGEQGLIVEDLVEEVGR [D46G] | 0.038 ± 0.025 |
| RRRVRAILPYTKVPDTDEISFLKGDMFIVHNELEDGIMWVTNLRTDEQGLIVEDLVEEVGR [W37I] | -0.104 ± 0.022 |
| RRRVRAILPYTKVPDTDEISFLKGDMFNVHNELEDGWMWVTNLRTDEQGLIVEDLVEEVGR [I28N] | -0.102 ± 0.022 |
| RRRVRAILPYTKVPDTDEISFLKGDMFIVHNELEDGWMWVTNLRTDEQGLIVECLVEEVGR [D54C] | -0.042 ± 0.035 |
| RRRVRAILPYTGVPDTDEISFLKGDMFIVHNELEDGWMWVTNLRTDEQGLIVEDLVEEVGR [K12G] | 0.023 ± 0.032 |
| RRRVRAILPYPKVPDTDEISFLKGDMFIVHNELEDGWMWVTNLRTDEQGLIVEDLVEEVGR [T11P] | -0.696 ± 0.051 |
| RRRVCAILPYTKVPDTDEISFLKGDMFIVHNELEDGWMWVTNLRTDEQGLIVEDLVEEVGR [R5C] | -0.072 ± 0.03 |
| RRRVRAILPYTKVPDTDEISFLKGDMFIVHNELEDGWMWVTNLRTDFQGLIVEDLVEEVGR [E47F] | -0.841 ± 0.04 |
| KRRVRAILPYTKVPDTDEISFLKGDMFIVHNELEDGWMWVTNLRTDEQGLIVEDLVEEVGR [R1K] | 0.058 ± 0.11 |
| RRRVRAILPYTKVPDTDWISFLKGDMFIVHNELEDGWMWVTNLRTDEQGLIVEDLVEEVGR [E18W] | -1.28 ± 0.29 |
| RRRVRAILPYTKVPDTDEISFLKGDMFIVHNELEDGWMWVTNLRTDEQGLIVEDLVEEVGL [R61L] | 0.039 ± 0.037 |
| RRRVRAILPYTKVPDTDEESFLKGDMFIVHNELEDGWMWVTNLRTDEQGLIVEDLVEEVGR [I19E] | -0.881 ± 0.14 |
| RRRVRAILPYTKVPDTDEISFLKGDMFIVHNELEDGWMWVTNLRSDEQGLIVEDLVEEVGR [T45S] | -0.098 ± 0.024 |
| RRRVRAILPYTKVPDTDEISFLKGDMFIVHNELEDGWMWVTWLRTDEQGLIVEDLVEEVGR [N42W] | -0.929 ± 0.11 |
| RRRVRAILPYTKVPDTDEISFLKGDMFIVWNELEDGWMWVTNLRTDEQGLIVEDLVEEVGR [H30W] | -0.153 ± 0.045 |
| RRRVRAILPYTKVPDTDEISFLKGDMFIVHNELEDGWMWVTNLRTDCQGLIVEDLVEEVGR [E47C] | -0.192 ± 0.029 |
| RRRVRAILPYTKVPDTDEISFLKGDMTIVHNELEDGWMWVTNLRTDEQGLIVEDLVEEVGR [F27T] | -0.914 ± 0.069 |
| VRRVRAILPYTKVPDTDEISFLKGDMFIVHNELEDGWMWVTNLRTDEQGLIVEDLVEEVGR [R1V] | -0.016 ± 0.038 |
| RRRVRAILPYTKVPDTDEISFLKGDMFIVHNELEFGWMWVTNLRTDEQGLIVEDLVEEVGR [D35F] | -0.182 ± 0.03 |
| RRRVRAILPYTKVPDTDESSFLKGDMFIVHNELEDGWMWVTNLRTDEQGLIVEDLVEEVGR [I19S] | -0.878 ± 0.042 |
| RRRVRAILPYTKVPDTDEISKLKGDMFIVHNELEDGWMWVTNLRTDEQGLIVEDLVEEVGR [F21K] | -0.988 ± 0.081 |
